In patent US20260274955A1 (JANUX THERAPEUTICS, published 2026):

How the values were obtained:
[1] = target: T1, anti-CD28 Fab (SEQ ID NOs: 202, 203); test: phage binding ELISA on captured biotinylated Fab;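 further: clonal phage supernatants added to wells preincubated with CD28 antigen or blocking buffer only, bound phage detected by ELISA with horseradish-conjugated anti-M13 antibody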
T1 construct: biotinylated and captured on neutravidin coated plates in the phage ELISA
Method: (§1) After panning, phage infected bacteria were plated out and colonies picked into 96 well blocks. Clonal phage was then amplified and separated from bacterial cells via centrifugation.
(§2) Clonal phage were harvested as crude supernatants and screened via standard ELISAs. […] Prior to the addition of clonal phage, wells were incubated with blocking buffer and CD28 antigen or blocking buffer alone. Without washing or aspirating, clonal phage supernatants were then added to the wells and incubated for a short time. Wells were then washed followed by detection of bound phage using a horse radish conjugated anti-M13 antibody. Clonal phage of interest were then sent for sequence analysis.

[2] = target: T2, Anti-CD28 Fab (SEQ ID NOs: 202, 203); test: phage binding ELISA, Fab on plate;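 further: clonal phage supernatant ELISA, wells preincubated with CD28 antigen or blocking buffer only, then bound phage detected using HRP-linked anti-M13 antibody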
T2 construct: biotinylated and captured on neutravidin coated plates in the phage ELISA
T2 sequence (VH, as listed by the source, chain 1 of 2): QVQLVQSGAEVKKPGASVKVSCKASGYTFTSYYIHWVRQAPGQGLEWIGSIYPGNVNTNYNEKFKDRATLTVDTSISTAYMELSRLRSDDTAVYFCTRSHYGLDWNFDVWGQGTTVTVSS
T2 sequence (VL, as listed by the source, chain 2 of 2): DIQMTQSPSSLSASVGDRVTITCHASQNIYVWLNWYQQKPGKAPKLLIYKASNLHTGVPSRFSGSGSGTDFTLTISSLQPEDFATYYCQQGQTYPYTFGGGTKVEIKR
Method: as §1, §2

T1 sequence (VH, as listed by the source, chain 1 of 2): as the sequence (VH, as listed by the source, chain 1 of 2) above
T1 sequence (VL, as listed by the source, chain 2 of 2): as the sequence (VL, as listed by the source, chain 2 of 2) above

Binder: PDCQTILFKPWCVR [Phage-4]
- Anti-CD28 Fab (SEQ ID NOs: 202, 203) signal [1]: 2.09

Binder: PDCHTILFKPWCVR [Phage-16]
- Anti-CD28 Fab (SEQ ID NOs: 202, 203) signal [1]: 1

Binder: WCWDYKLWVPMTCP [Phage-11]
- Anti-CD28 Fab (SEQ ID NOs: 202, 203) signal [1]: 2.51

Binder: YCMGHSHEHIWKCL [Phage-23]
- Anti-CD28 Fab (SEQ ID NOs: 202, 203) signal [1]: 0.87

Binder: ACDTYFAGMINECF [Phage-5]
- Anti-CD28 Fab (SEQ ID NOs: 202, 203) signal [1]: 0.92

Binder: TCEAVFIYSWPFCL [Phage-1096]
- Anti-CD28 Fab (SEQ ID NOs: 202, 203) signal [2]: 1.52

Binder: SCKAGAPYYWPGCF [Phage-1088]
- Anti-CD28 Fab (SEQ ID NOs: 202, 203) signal [2]: 1.54

Binder: DCWWMFESYPGRCI [Phage-12]
- Anti-CD28 Fab (SEQ ID NOs: 202, 203) signal [1]: 1.65

Binder: TCAAGAAWPWPQCL [Phage-890]
- Anti-CD28 Fab (SEQ ID NOs: 202, 203) signal [1]: 2.23

Binder: TCSAGFSYKWPWCL [Phage-1080]
- Anti-CD28 Fab (SEQ ID NOs: 202, 203) signal [2]: 1.57

Binder: MCTAGATYPWPACL [Phage-1084]
- Anti-CD28 Fab (SEQ ID NOs: 202, 203) signal [2]: 1.56

Binder: SCSAGAMYPWPMCL [Phage-1093]
- Anti-CD28 Fab (SEQ ID NOs: 202, 203) signal [2]: 1.53

Binder: WICDKSGSIMLCRA [Phage-17]
- Anti-CD28 Fab (SEQ ID NOs: 202, 203) signal [1]: 0.91

Binder: TCSAGAAYSWPACF [Phage-896]
- Anti-CD28 Fab (SEQ ID NOs: 202, 203) signal [1]: 1.89

Binder: TCAAGASWEWPLCF [Phage-1094]
- Anti-CD28 Fab (SEQ ID NOs: 202, 203) signal [2]: 1.52

Binder: TCAAGAMWTWPECL [Phage-1081]
- Anti-CD28 Fab (SEQ ID NOs: 202, 203) signal [2]: 1.57

Binder: LCAAGFNYPWPLCL [Phage-1083]
- Anti-CD28 Fab (SEQ ID NOs: 202, 203) signal [2]: 1.57

Binder: WCAAGASYPWPWCL [Phage-1077]
- Anti-CD28 Fab (SEQ ID NOs: 202, 203) signal [2]: 1.58

Binder: LCAEGFDYSWPMCL [Phage-1086]
- Anti-CD28 Fab (SEQ ID NOs: 202, 203) signal [2]: 1.55

Binder: TCTAVFPYEWPRCL [Phage-1078]
- Anti-CD28 Fab (SEQ ID NOs: 202, 203) signal [2]: 1.57

Binder: YCAGHTEEHYVKCM [Phage-22]
- Anti-CD28 Fab (SEQ ID NOs: 202, 203) signal [1]: 0.62

Binder: WCWDYREWVPMTCP [Phage-8]
- Anti-CD28 Fab (SEQ ID NOs: 202, 203) signal [1]: 2.3

Binder: WCWYYREWVPMTCP [Phage-14]
- Anti-CD28 Fab (SEQ ID NOs: 202, 203) signal [1]: 1.85

Binder: SCAAGATFHWPMCF [Phage-1079]
- Anti-CD28 Fab (SEQ ID NOs: 202, 203) signal [2]: 1.57

Binder: TCSAGATYEWPRCL [Phage-899]
- Anti-CD28 Fab (SEQ ID NOs: 202, 203) signal [1]: 1.84

Binder: SCSAGAHYPWPQCF [Phage-898]
- Anti-CD28 Fab (SEQ ID NOs: 202, 203) signal [1]: 1.16

Binder: FMCLPQNPHPLCFK [Phage-3]
- Anti-CD28 Fab (SEQ ID NOs: 202, 203) signal [1]: 0.84

Binder: GCQYPWAFDAMSCP [Phage-6]
- Anti-CD28 Fab (SEQ ID NOs: 202, 203) signal [1]: 2.38

Binder: SCAAGASYAWPYCL [Phage-18]
- Anti-CD28 Fab (SEQ ID NOs: 202, 203) signal [1]: 1.49

Binder: WCWDYKLWVPTQCP [Phage-7]
- Anti-CD28 Fab (SEQ ID NOs: 202, 203) signal [1]: 2.27

Binder: SCSAGAAWPWPWCL [Phage-1085]
- Anti-CD28 Fab (SEQ ID NOs: 202, 203) signal [2]: 1.55

Binder: LCAAGATYPWPLCL [Phage-894]
- Anti-CD28 Fab (SEQ ID NOs: 202, 203) signal [1]: 2.39

Binder: LCAAGATYAWPLCL [Phage-945]
- Anti-CD28 Fab (SEQ ID NOs: 202, 203) signal [1]: 2.13

Binder: MCAAGATYPWPACL [Phage-914]
- Anti-CD28 Fab (SEQ ID NOs: 202, 203) signal [1]: 2.3

Binder: LCAAGFKYPWPLCL [Phage-964]
- Anti-CD28 Fab (SEQ ID NOs: 202, 203) signal [1]: 2.02

Binder: YCAAGATYPWPLCL [Phage-952]
- Anti-CD28 Fab (SEQ ID NOs: 202, 203) signal [1]: 2.08

Binder: LCAAGATYPWPTCL [Phage-897]
- Anti-CD28 Fab (SEQ ID NOs: 202, 203) signal [1]: 1.71

Binder: LCAAGATYPWPFCL [Phage-919]
- Anti-CD28 Fab (SEQ ID NOs: 202, 203) signal [1]: 2.28

Binder: LCAAGASYPWPTCL [Phage-967]
- Anti-CD28 Fab (SEQ ID NOs: 202, 203) signal [1]: 2

Binder: MCAAGATYPWPLCL [Phage-970]
- Anti-CD28 Fab (SEQ ID NOs: 202, 203) signal [1]: 1.99

Binder: TCSAGATYTWPKCF [Phage-891]
- Anti-CD28 Fab (SEQ ID NOs: 202, 203) signal [1]: 1.87

Binder: TCSEGATYTWPWCF [Phage-954]
- Anti-CD28 Fab (SEQ ID NOs: 202, 203) signal [1]: 2.05

Binder: TCSAVFSYTWSNCF [Phage-1089]
- Anti-CD28 Fab (SEQ ID NOs: 202, 203) signal [2]: 1.54

Binder: SCAAGAQYGWPMCL [Phage-1076]
- Anti-CD28 Fab (SEQ ID NOs: 202, 203) signal [2]: 1.59

Binder: WECLKYTEANACTY [Phage-2]
- Anti-CD28 Fab (SEQ ID NOs: 202, 203) signal [1]: 1.55

Binder: DCPWLSGFSRPLLC [Phage-19]
- Anti-CD28 Fab (SEQ ID NOs: 202, 203) signal [1]: 1.27

Binder: ECHWSMWAVGHACF [Phage-9]
- Anti-CD28 Fab (SEQ ID NOs: 202, 203) signal [1]: 1.77

Binder: YCAGHSHEYLAKCE [Phage-24]
- Anti-CD28 Fab (SEQ ID NOs: 202, 203) signal [1]: 0.86

Binder: TCSAGAAYPWPLCL [Phage-895]
- Anti-CD28 Fab (SEQ ID NOs: 202, 203) signal [1]: 2.36

Binder: YWYCSPSIVRCVLV [Phage-15]
- Anti-CD28 Fab (SEQ ID NOs: 202, 203) signal [1]: 1.51

Binder: LCAAGAAYPWPMCL [Phage-1073]
- Anti-CD28 Fab (SEQ ID NOs: 202, 203) signal [2]: 1.59

Binder: TCAAGAMWNWPQCY [Phage-1092]
- Anti-CD28 Fab (SEQ ID NOs: 202, 203) signal [2]: 1.54

Binder: YCAGHSPINIGKCL [Phage-10]
- Anti-CD28 Fab (SEQ ID NOs: 202, 203) signal [1]: 1.49

Binder: TCAAGATYPWPECM [Phage-1082]
- Anti-CD28 Fab (SEQ ID NOs: 202, 203) signal [2]: 1.57

Binder: YCAGMSTIQLWLKC [Phage-20]
- Anti-CD28 Fab (SEQ ID NOs: 202, 203) signal [1]: 2.16

Binder: TCAAGATWDWPLCF [Phage-1099]
- Anti-CD28 Fab (SEQ ID NOs: 202, 203) signal [2]: 1.51

Binder: YCAGHMPQYEVKCL [Phage-21]
- Anti-CD28 Fab (SEQ ID NOs: 202, 203) signal [1]: 0.22

Binder: TCSAGATYVWPDCF [Phage-1095]
- Anti-CD28 Fab (SEQ ID NOs: 202, 203) signal [2]: 1.52

Binder: LCAEGADYPWPMCL [Phage-1098]
- Anti-CD28 Fab (SEQ ID NOs: 202, 203) signal [2]: 1.51

Binder: TCSAGATYSWPFCF [Phage-1087]
- Anti-CD28 Fab (SEQ ID NOs: 202, 203) signal [2]: 1.55

Binder: TCAAGAAWEWPICF [Phage-1091]
- Anti-CD28 Fab (SEQ ID NOs: 202, 203) signal [2]: 1.54

Binder: TCAAGAAWGWPLCF [Phage-893]
- Anti-CD28 Fab (SEQ ID NOs: 202, 203) signal [1]: 2.3

Binder: TCAAGATWSWPACF [Phage-892]
- Anti-CD28 Fab (SEQ ID NOs: 202, 203) signal [1]: 2.23

Binder: LCAAGASWPWPVCL [Phage-888]
- Anti-CD28 Fab (SEQ ID NOs: 202, 203) signal [1]: 2.16

Binder: YWSCFQIPFTCFYF [Phage-1]
- Anti-CD28 Fab (SEQ ID NOs: 202, 203) signal [1]: 1.44

Binder: YCAGHAWQYINKCL [Phage-13]
- Anti-CD28 Fab (SEQ ID NOs: 202, 203) signal [1]: 0.64
